For data set [1], the target named is T1, Prostate-specific antigen (PSA, KLK3) (Homo sapiens, UniProt P07288 P07288:25-261). Put plainly: ELONA. The conditions noted are these: tags: purified from human semen; Sigma-Aldrich and Scipac; label: 5'-FITC. The procedure:
(§1) 100 μL amounts of PSA in PBS buffer (pH 7.4), at final concentration of 5 μg/mL, were added to a 96-well polystyrene plate. After 2 h incubation with gentle shaking at 37° C., the supernatant was removed and each well was washed with TBST buffer. Each well was filled with 100 μl of five-fold-diluted blocking reagent N102 and incubated with gentle shaking for 1 h at room temperature, and then washed three times. FITC-labeled aptamer was heat treated in TBS buffer as described above for folding. To each well 100 μL amounts of the FITC-labeled aptamer in TBST buffer (5 μM) were added and incubated for 1 h at room temperature. After washing three times, HRP-conjugated anti-FITC antibody was added to each well and incubated with gentle shaking for 1 h at room temperature. Each well was washed five times and BM chemiluminescence HRP substrate was added, then the HRP activity was measured by a multi label plate counter: Wallac 1420 ARVO MX (Perkin Elmer).
In order to carry out a post-SELEX screening of aptamers using GA with candidates, the five sequences pre-selected through SELEX were used as “parents” to produce a set of 20 oligonucleotide sequences using GA. These oligonucleotides were synthesized and the PSA-binding ability was evaluated by plate assay. The PSA-binding ability was measured by detection chemiluminescence from HRP-conjugated anti-FITC antibody that represented the binding of oligonucleotides against PSA immobilized on a well of polystyrene plate (n=2). The signal intensity was normalized with that of the top oligonucleotide in the 1st-generation. Then, the oligonucleotides were ranked according to PSA-binding ability, and top four ranked sequences were chosen to produce a next set of oligonucleotide sequences. The cycle of oligonucleotide synthesis, plate assay and evolution of the oligonucleotide sequences using GA was repeated three times, with one cycle corresponding to one generation when we assume this process to be the in silico evolution of the PSA-binding aptamer. After one cycle of GA operations, four 2nd-generation sequences, SEQ ID: Nos. 8 to 11, were obtained.

Data set [2] deals with T1, Prostate-specific antigen (PSA, KLK3). Put plainly: ELONA; rank 6 of 1st generation. The conditions noted are these: tags: purified from human semen; Sigma-Aldrich and Scipac; label: 5'-FITC. The procedure: as §1, with “After washing three times, HRP-conjugated anti-FITC antibody was added to each well and incubated with gentle shaking for 1 h at room temperature.” left out
(§2) In order to carry out a post-SELEX screening of aptamers using GA with candidates, the five sequences pre-selected through SELEX were used as “parents” to produce a set of 20 oligonucleotide sequences using GA. These oligonucleotides were synthesized and the PSA-binding ability was evaluated by plate assay. The PSA-binding ability was measured by detection chemiluminescence from HRP-conjugated anti-FITC antibody that represented the binding of oligonucleotides against PSA immobilized on a well of polystyrene plate (n=2). […]

Data set [3] shares this target. The data set is described as follows: ELONA; rank 5 of 1st generation. The conditions noted are these: tags: purified from human semen; Sigma-Aldrich and Scipac; label: 5'-FITC. The procedure: as §1, with “After washing three times, HRP-conjugated anti-FITC antibody was added to each well and incubated with gentle shaking for 1 h at room temperature.” left out
as §2

The target is the same in data set [4]. The data set is described as follows: ELONA; rank 2 of 1st generation. The conditions noted are these: tags: purified from human semen; Sigma-Aldrich and Scipac; label: 5'-FITC. On the procedure:
as §1, with “After washing three times, HRP-conjugated anti-FITC antibody was added to each well and incubated with gentle shaking for 1 h at room temperature.” left out
as §2

Data set [5] has the same target. Put plainly: ELONA; rank 1 of 1st generation; 1st generation up to 10-fold higher than parents. The conditions noted are these: tags: purified from human semen; Sigma-Aldrich and Scipac; label: 5'-FITC. The procedure: as §1, with “After washing three times, HRP-conjugated anti-FITC antibody was added to each well and incubated with gentle shaking for 1 h at room temperature.” left out
as §2

The target is the same in data set [6]. The data set is described as follows: ELONA; rank 7 of 1st generation. The conditions noted are these: tags: purified from human semen; Sigma-Aldrich and Scipac; label: 5'-FITC. On the procedure:
as §1, with “After washing three times, HRP-conjugated anti-FITC antibody was added to each well and incubated with gentle shaking for 1 h at room temperature.” left out
as §2

The target is the same in data set [7]. The data set is described as follows: ELONA; rank 3 of 1st generation. The conditions noted are these: tags: purified from human semen; Sigma-Aldrich and Scipac; label: 5'-FITC. On the procedure: as §1, with “After washing three times, HRP-conjugated anti-FITC antibody was added to each well and incubated with gentle shaking for 1 h at room temperature.” left out
as §2

The target is the same in data set [8]. Put plainly: ELONA; PSA immobilized on polystyrene plate; TBST with 5 mM KCl, 5 mM MgCl2, pH 7.4, room temp. The conditions noted are these: tags: purified from human semen; Sigma-Aldrich and Scipac; label: 5'-FITC; predicted stem-loop. The procedure:
as §1, with “After washing three times, HRP-conjugated anti-FITC antibody was added to each well and incubated with gentle shaking for 1 h at room temperature.” left out
Plate assay for detection of PSA was performed as described above with the following modifications. […] After incubation with HRP-conjugated anti-FITC antibody, chemiluminescence from HRP was measured.
Plate assay was performed to measure PSA concentrations with ΔPSap4#5 selected using GA as the top oligonucleotide of the 4th-generation. […] Then, the PSA concentration was measured by detecting chemiluminescence from HRP-conjugated anti-FITC antibody that represented the binding of FITC-labeled ΔPSap4#5 against PSA immobilized on a well of polystyrene plate (n=2). […]

For data set [9] the target is unchanged. Put plainly: ELONA; rank 4 of 1st generation. The conditions noted are these: tags: purified from human semen; Sigma-Aldrich and Scipac; label: 5'-FITC. On the procedure:
as §1, with “After washing three times, HRP-conjugated anti-FITC antibody was added to each well and incubated with gentle shaking for 1 h at room temperature.” left out
as §2

For orientation: Kd means a measure of binding affinity in units of concentration.

T1 sequence (P07288 25-261, one chain of several): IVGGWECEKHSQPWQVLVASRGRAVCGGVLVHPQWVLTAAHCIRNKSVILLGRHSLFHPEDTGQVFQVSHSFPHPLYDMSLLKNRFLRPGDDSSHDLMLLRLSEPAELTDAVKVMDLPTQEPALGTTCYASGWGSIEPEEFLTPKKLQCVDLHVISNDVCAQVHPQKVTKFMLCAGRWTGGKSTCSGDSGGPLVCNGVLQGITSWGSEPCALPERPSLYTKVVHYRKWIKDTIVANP

Take TTTTTGCCTACTGATTTCCTTTTTGAGCCTTT (ssDNA) [ΔPSap2#01]: the binding signal in data set [1] is 1170 CPS (normalized HRP chemiluminescence).
In the case of TTTTTGCCTAATGATTTCCCGGTTGTCTCTTT (ssDNA) [ΔPSap1#15], in data set [2], the binding result was “binds”.
Consider TTTTTAATATCACCCTTGTTTACTGTCCCTTT (ssDNA) [ΔPSap1#12], for which the binding result in data set [3] was “binds”.
On to TTTTTAATGTCAACGTTGTTTACTGTCCCTTT (ssDNA) [ΔPSap2#18], for which the binding signal in [1] is 1490 CPS (normalized HRP chemiluminescence).
As to TTTTTACTTAAGGATTTCCTTTTTTAGCCTTT (ssDNA) [ΔPSap1#3], in data set [4], the binding result was “binds”.
TTTTTAATATCAACTTGCCATAAAGGGCCTTT (ssDNA) [ΔPSap1#13]: the binding result in data set [5] is “binds”.
Take TTTTTACTTAATGATTTCACCGGTGGCCCTTT (ssDNA) [ΔPSap1#19]: in data set [6], the binding result is reported as “binds”.
In the case of TTTTTACTGTGAACTCGCCATCAAATATCTTT (ssDNA) [ΔPSap2#16], the binding signal in data set [1] was 1480 CPS (normalized HRP chemiluminescence).
Regarding TTTTTAATGTCAACTCGCCATCAAATATCTTT (ssDNA) [ΔPSap1#16], in [7], the binding result is recorded as “binds”.
On to TTTTTAATTAAAGCTCGCCATCAAATAGCTTT (ssDNA) [ΔPSap4#5], for which, in data set [8], the Kd is 54 nM.
For the molecule TTTTTAATTAAGGCTCGCCATCAAAGAGCTTT (ssDNA) [ΔPSap4#14], in [1], the binding signal was 2510 CPS (normalized HRP chemiluminescence).
On the same count and under the same terms, with TTTTTAATTCAGGCTCGCCATCAAATAGCTTT (ssDNA) [ΔPSap4#1] the figure was 1800 CPS (normalized HRP chemiluminescence); with TTTTTAATTAAGGCTCGCCATCAAAAAGCTTT (ssDNA) [ΔPSap4#19], 1220 CPS (normalized HRP chemiluminescence).
Still for that read-out and setting: with TTTTTAATTAAGGCTCGCCATCAAATAACTTT (ssDNA) [ΔPSap4#11] the figure was 2150 CPS (normalized HRP chemiluminescence).
Consider TTTTTTATTAAGGCTCGCCATCAAATAGCTTT (ssDNA) [ΔPSap4#10], for which, in data set [1], the binding signal was 3300 CPS (normalized HRP chemiluminescence).
In the case of TTTTTAATTAAGGCTCGCCATCAGATAGCTTT (ssDNA) [ΔPSap4#7], the binding signal in data set [1] is 3260 CPS (normalized HRP chemiluminescence).
Still for that read-out and setting: with TTTTTAATTAAGGATTTCCCGGTTGTATCTTT (ssDNA) [ΔPSap2#02] the figure was 1550 CPS (normalized HRP chemiluminescence).
Take TTTTTCCTCACCGGGTAACTTCGTGGCCCTTT (ssDNA) [ΔPSap1#5]: the binding result in data set [9] is recorded as “binds”.
